Results from article PMC4899126.

Columns and labels:
[1] = biological target: E.r. RT domain (group II intron maturase from Eubacterium rectale M104/1, residues 1-293) (Eubacterium rectale M104/1); experiment: SEC-MALS
[2] = biological target: E.r. RT domain (group II intron maturase from Eubacterium rectale M104/1, residues 1-293) (Eubacterium rectale M104/1); experiment: SEC-MALS; remark: listed apart in the source
[3] = biological target: E.r. RT domain (group II intron maturase from Eubacterium rectale M104/1, residues 1-293) (Eubacterium rectale M104/1); experiment: AUC
[4] = biological target: E.r. RT domain (group II intron maturase from Eubacterium rectale M104/1, residues 1-293) (Eubacterium rectale M104/1); experiment: AUC; remark: listed apart in the source

Measured: stoichiometry N

E.r. RT domain (group II intron maturase from Eubacterium rectale M104/1, residues 1-293) (domain or fragment)
2: all assays above
